Experiments:
GST 택(tag)이 달린 IL-33 = target: T1, GST 택(tag)이 달린 IL-33 (human, UniProt O95760 112-270); test: ELISA, antigen fixed and scFv titrated
T1 construct: also called GST-IL-33; 재조합 GST-IL-33; not shown: Glutathione S-transferase (GST) tag; It is N-terminal, since stop codons pla
T1 sequence: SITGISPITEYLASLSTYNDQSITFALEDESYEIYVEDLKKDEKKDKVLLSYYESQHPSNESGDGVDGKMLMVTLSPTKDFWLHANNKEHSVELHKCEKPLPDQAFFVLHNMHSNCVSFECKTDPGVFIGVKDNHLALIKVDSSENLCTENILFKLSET

BSA = target: T2, BSA (UniProt P02769 25-607); test: immunoblot, C2_2E12 as primary antibody, anti-HA-HRP as secondary
T2 construct: Unrelated control protein in the immunoblot

IL-1b = IL-1b (UniProt P01584 117-269); test: as above
IL-6 = IL-6 (UniProt P05231 30-212); test: as above

T2 sequence (P02769 25-607 limits assumed): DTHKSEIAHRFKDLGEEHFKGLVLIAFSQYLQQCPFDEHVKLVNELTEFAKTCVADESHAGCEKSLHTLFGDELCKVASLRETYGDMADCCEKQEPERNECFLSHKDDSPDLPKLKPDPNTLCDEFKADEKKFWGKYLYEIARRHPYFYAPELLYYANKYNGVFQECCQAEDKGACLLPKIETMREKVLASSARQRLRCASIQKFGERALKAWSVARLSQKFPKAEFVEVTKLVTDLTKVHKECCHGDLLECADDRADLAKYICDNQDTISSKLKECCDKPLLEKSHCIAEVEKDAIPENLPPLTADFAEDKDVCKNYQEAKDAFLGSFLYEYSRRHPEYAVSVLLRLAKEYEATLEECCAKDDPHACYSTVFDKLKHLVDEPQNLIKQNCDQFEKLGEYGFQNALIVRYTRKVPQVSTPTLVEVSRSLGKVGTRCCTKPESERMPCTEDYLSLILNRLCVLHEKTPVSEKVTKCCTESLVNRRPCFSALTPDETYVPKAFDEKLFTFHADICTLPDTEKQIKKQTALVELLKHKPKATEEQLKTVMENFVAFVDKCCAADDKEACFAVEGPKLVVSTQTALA

Row | Binder | Kd (GST 택(tag)이 달린 IL-33) [nM] | binding result (BSA) | binding result (IL-1b) | binding result (IL-6)
1 | C2_2H5 (scFv, scFv clone from a synthetic human scFv phage library; also called Anti-IL-33 scFv C2_2H5) scFv: EVQLLESGGGLVQPGGSLRLSCAASGFTFSSYYMSWVRQAPGKGLEWVSAISPGSSNKYYADSVKGQFTISRDNSKNTLYLQMNSLRAEDTAVYYCAKLSQSFDYWGQGTLVTVSSGGGGSGGGGSGGSGSQSVLTQPPSASGTPGQRVTISCTGSSSNIGNNGISWYQQLPGTAPKLLIYDNSHRPSGVPDRFSGSKSGTSASLAISGLRSEDETDYYCASWDSSLSGYVFGGGTKLTVLGQAGQHHHHHHGAYPYDVPDYAS | 31 |  |  | 
2 | C2_1D5 (scFv, scFv clone from a synthetic human scFv phage library; also called Anti-IL-33 scFv C2_1D5) scFv: EVQLLESGGGLVQPGGSLRLSCAASGFTFSSYYMSWVRQAPGKGLEWVSAISPGSSNKYYADSVKGRFTISRDNSKNTLYLQMNSLRAEDTAVYYCARLLSAFDYWGQGTLVTVSSGGGGSGGGGSGGGGSQSVLTQPPSASGTPGQRVTISCSGSSSNIGSNDVSWYQQLPGTAPKLLIYSDSNRPSGVPDRFSGSKSGTSASLAISGLRSEDEADYYCGAWDSSLSGYVFGGGTKLTVLGQAGQHHHHHHGAYPYDVPDYAS | 36 |  |  | 
3 | C2_2A10 (scFv, scFv clone from a synthetic human scFv phage library; also called Anti-IL-33 scFv C2_2A10) scFv: EVQLLESGGGLVQPGGSLRLSCAASGFTFSSYYMSWVRQAPGKGLEWVSAISPGSSNKYYADSVKGRFTISRDNSKNTLYLQMNSLGAEDTAVYYCAKLLTGFDYWGQGTLVTVSSGGGGSGGGGSGGGGSQSVLTQPPSASGTPGQRVTISCSGSSSNIGNNAVSWYQQLPGTAPKLLIYDDNHRPSGVPDRFSGSKSGTSASLAISGLRSEDEADYYCGTWDSSLSAYVFGGGTKLTVLGQAGQHHHHHHGAYPYDVPDYAS | 57 |  |  | 
4 | C1_1E1 (scFv, scFv clone from a synthetic human scFv phage library; also called Anti-IL-33 scFv C1_1E1) scFv: EVQLLESGGGLVQPGGSLRLSCAASGFTFSSYYMSWVRQAPGKGLEWVSAISPGSSNKYYADSVKGRFTISRDNSKNTLYLQMNSLRAEDTAVYYCAKLTSAFDYWGQGTLVTVSSGGGDSGGGGSGGGGSQSVLTQPPSASGTPGQRVTISCTGSSSNIGSNDVTWYQQLPGTAPKLLIYSDNKRPSGVPDRFSGSKSGTSASLAISGLRSEEEADYYCGAWDSSLSGYVFGGGTKLTVLGQAGQHHHHHHGAYPYDVPDYAS | 48 |  |  | 
5 | C2_2E1 (scFv, scFv clone from a synthetic human scFv phage library; also called Anti-IL-33 scFv C2_2E1) scFv: EVQLLESGGGLVQPGGSLRLSCAASGFTFSSYYMSWVRQAPGRGLEWVSAISPGSSNKYYADSVKGRFTISRDNSKNTLYLQMNSLRAEDTAVYYCARMTSSFDYWGQGTLVTVSSGGGGSGGGGSGGGGSQSVLTQPPSASGTPGQRVTISCSGSSSNIGNNDVSWYQQLPGTAPKLLIYSDSQRPSGVPDRFSGSKSGTSASLAISGLRSEDEADYYCGSWDYSLSAYVFGGGTKLTVLGQAGQHHHHHHGAYPYDVPDYAS | 35 |  |  | 
6 | C2_2E12 (scFv, The recombinant scFv was purified on Ni-NTA agarose and detected with anti-HA-HRP, so the protein tested probably carried His and HA tags; also called Anti-IL-33 scFv C2_2E12; 재조합 C2_2E12 scFv 항체) scFv: EVQLLESGGGLVQPGGSLRLSCAASGFTFSSYYMSWVRQAPGKGLEWVSAISPGSSNKYYADSVKGRFTISRDNSKNTLYLQMNSLRAEDTAVYYCARLTLSFDYWGQGTPVTVSSGGGGSGGGGSGGGGSQSVLTQPPSASGTPGQRVTISCSGSSSNIGSNDVSWYQQLPGTAPKLLIYADSKRPSGVPDRFSGSKSGTSASLAISGLRSEDEADYYCASWDSSLSAYVFGGGTKLTVLG | 28 | no binding (tested: 0.5 mg/ml, 1:100 희석) | no binding (tested: 0.5 mg/ml, 1:100 희석) | no binding (tested: 0.5 mg/ml, 1:100 희석)

— patent publication KR20220022226A (dated 2022)
